Type in all cases: cell-based, human
Data set [1] has as its system HUVECs. Description: Gene (qPCR) and protein (Western blot) expression in transfected HUVECs. The method, then:
(§1) Human umbilical vein ECs (HUVECs; Lonza) were grown in EGM-2 (comprising EBM-2 with growth factors and other supplements) with 2% Foetal Bovine Serum. Confluent HUVECs were treated with 10 ng/ml TNF-α, IL-1β, TGFβ2 (PeproTech); medium and cytokines were changed every two days. SB431542 (Tocris) has been used at the dose of 10 μM. HEK293T cells (ATCC®, CRL-11268) were cultured in D-MEM with 10% FBS (Life Technologies).
(§2) Total RNA was extracted using miReasy kit (Qiagen). Real-time quantification to measure miRNAs was performed with the TaqMan miRNA reverse transcription kit and miRNA assay (Life Technology) using Lightcycler 480 (Roche). miRNAs expression was normalized to the U6 […] (snRU6). For mRNA analysis, cDNA was amplified by quantitative real-time PCR (qPCR) and normalized to 18S ribosomal RNA. Each reaction was performed in triplicate. Quantification was performed by the 2^−ΔΔCt method^52. qPCR was used to measure the expression of miR-148b (miR-148b-3p Thermo Fisher Scientific, Cat. #4426961), snRU6 (ThermoFisher Scientific, Cat. #4331182), TGFβ2, SMAD2, CD31, VE-Cadherin, COL1A1, α-SMA, SLUG, VIM, SNAIL, TWIST, ZEB1/2 and 18S rRNA. Primers are pre-designed from Sigma (KiCgStart™ Primers).
(§3) Lipofectamine RNAiMAX (Thermo Fisher Scientific) was used to transfect HUVECs with miR-148b mimic, anti-miR-148b and mimic or anti-miR control (25 nM and […], respectively final concentration) or with siRNA targeting SMAD2 (20 nM final concentration), according to the manufacturer's instructions. jetPEI-HUVECs (Polyplus) was used to transfect HUVECs with DNA plasmids. The following functional assays were performed: BrdU incorporation assay using Cell Proliferation colorimetric assay (Roche); Matrigel assay with HUVECs was performed as previously described using BD Matrigel Basement Membrane Matrix (BD Biosciences)^53.
(§4) Proteins were extracted from cultured cells or muscles by using ice-cold buffer A (50 mM Hepes, 150 mM NaCl, 1 mM EDTA, 1 mM EGTA, 25 mM NaF, 5 mM NaPPi, 1%Triton, 1% NP40, 1 mM Na3VO4, 0.25% sodium deoxycholate, 0.5 mM Na-orthovanadate, 1 mM benzamidine, 0.1 mM phenylmethylsulfonyl fluoride). Protein concentration was determined using the Bio-Rad Protein Assay Reagent (Bio-Rad Laboratories, UK). Detection of proteins by Western blot analyses was done following separation of whole cell extracts (20 μg) on SDS-polyacrylamide gels. Proteins were transferred to nitrocellulose membranes and probed with the following antibodies: TGFβ2 (Abcam, ab36495, 1:1000), SMAD2 (SantaCruz Biotechnology, Santa Cruz, Calif., USA; #3102, 1:1000), p-SMAD2 (465/467) (Cell Signaling; #3108, 1:1000); CD31 (Abcam., 1:1000), VE-Cadherin (Abcam, ab33168, 1:1000), COL1A1 (Abcam, ab138492, 1:200), FSP-1 (5100A4; Abcam, ab41532, 1:1000), SLUG (Abcam, ab27568, 1:1000), β-actin (Abcam, ab16039, 1:4000), HDAC3 (GeneTex GTX113303, 1:1000) and GAPDH (GeneTex, GT239, 1:1000) (both used as loading control). For detection, the inventors used secondary antibodies conjugated to horseradish peroxidase which were rabbit anti-mouse (Abcam, ab97046, 1:5000) and goat anti-rabbit (Abcam, ab6721, 1:10000). Detection was developed by chemiluminescence reaction (ECL) (Immunoblot, Millipore, 23225).

Data set [2] has as its system HUVECs. As to the kind of experiment: BrdU incorporation assay (EC proliferation). The note with it: transfected 48 hrs (mimic 25 nM, anti-miR 75 mM). The procedure:
as §3

Data set [3] relates to HUVECs. As to the kind of experiment: Matrigel assay (tube formation). The note with it: transfected 48 hrs (mimic 25 nM, anti-miR 75 mM). The procedure: as §3
For the next data set, the system named is 3′UTR of TGFB2. Description: Luciferase reporter assay, wild-type 3′UTR of TGFB2. The note with it: 48 h post-co-transfection, HEK293T cells or HUVECs; mutation of the binding sites restored it. From the text: (§5) Luciferase assay has been performed as previously described^53. TGFB2 3′-UTR and SMAD2 3′-UTR vectors were cloned in pMIR-Reporter (Life Technology). Primers are used for the cloning are: TGFβ2 3′UTR: Forward 5′-[…]-3′ (SEQ ID NO: 7), Reverse 5′-[…]-3′ (SEQ ID NO: 8); SMAD2 3′UTR: Forward 5′-[…]-3′ (SEQ ID NO: 9), Reverse 5′-[…]-3′ (SEQ ID NO: 10). Primers for 3′UTR mutation: TGFB2: Forward […] (SEQ ID NO: 11) and Reverse […] (SEQ ID NO: 12); SMAD2 Forward […] (SEQ ID NO: 13) and Reverse […] (SEQ ID NO: 14). Luciferase constructs were transfected into HEK293T cells or HUVECs together with miR-148b mimics or p-SV-beta-Gal control vector. Cells were cultured for 48 h and assayed with the Luciferase and β-Galactosidase Reporter Assay Systems (Promega). Luciferase values were normalized to protein concentration and β-galactosidase activity.

For data set [4], the system named is HUVECs treated with TNF-α/IL-1β. Description: Rescue of TNF-α/IL-1β-induced EndMT in HUVECs. The note with it: mimic-transfected HUVECs, TNF-α/IL-1β 6 days. The method, then:
as §1, §2, §3, §4
Cells were fixed using 4% paraformaldehyde in PBS at room temperature for 15 min. For intracellular staining, fixed cells were permeabilized using 0.5% Triton X-100 in PBS (Sigma-Aldrich) or 0.1% Saponin in PBS at room temperature for 10 min. The blocking of […] antibody activity was performed using 3% bovine serum albumin (BSA) in PBS for 1 hour. Samples were incubated with antibodies to CD31 (Abcam, ab28364, 1:50), VE-cadherin (Abcam, ab33168, 1:100), FSP-1 (Abcam, ab41532, 1:200) and COL1A1 (Abcam, ab138492, 1:100) in PBS containing 1% BSA at 4° C. overnight. […]

Another data set relates to 3′UTR of SMAD2. Description: Luciferase reporter assay, wild-type 3′UTR of SMAD2. As to conditions: 48 h post-co-transfection, HEK293T cells or HUVECs; mutation of the binding sites restored it.
Excerpt: as §5

For “anti-miR-148b: miR-148b inhibitor oligonucleotide; suitable inhibitor: hsa-miR-148b-3p miRCURY LNA inhibitor, CAAAGTTCTGTGATGCACTG (SEQ ID NO: 6) (commercial miRCURY LNA inhibitor, LNA positions not given here)”, the “expression of target genes TGFB2 and SMAD2 (mRNA)” value in the data set on HUVECs [1] (anti-miR 75 mM, 48 hrs) is “increased”. For the same molecule, in the data set with HUVECs [1] (anti-miR, 48 hrs), the “CD31 and VE-cadherin (Western blot)” value is given as “suppression”; the “SLUG (Western blot)” value is listed as “up-regulation”; the “SLUG expression (mRNA)” value is on record as “strong up-regulation”; the “TGFB2, SMAD2 and its phosphorylation (Western blot)” value is “upregulation”. In addition, in the data set with HUVECs [1] (anti-miR, 48 hrs), the “expression of CD31 and VE-Cadherin (mRNA)” value is reported as “decreased”; the “expression of COL1A1 and FSP-1 (mRNA)” value was “increased”; the “mesenchymal markers COL1A1, FSP-1 (Western blot)” value is reported as “appearance”; the “α-SMA or vimentin (VIM) levels” value is reported as “without detectable changes”. For the same molecule, the “proliferation of HUVECs (BrdU incorporation)” value with HUVECs [2] is listed as “decreased”. In addition, the “tube formation / tubulogenesis in Matrigel assay (total tubules length)” value in the data set with HUVECs [3] was “did not cause a change”.

B1: miR-148b mimic: miR-148b mimic oligonucleotide; in a particular embodiment has SEQ ID NO: 1, the human precursor miR-148b sequence (nucleic acid)
chain: CAAGCACGAUUAGCAUUUGAGGUGAAGUUCUGUUAUACACUCAGGCUGUGGCUCUCUGAAAGUCAGUGCAUCACAGAACUUUGUCUCGAAAGCUUUCUA
modifications: listed as RNA, chemistry not given here
On to B1, for which the “luciferase activity, 3′-UTR-TGFB2 reporter” value with 3′UTR of TGFB2 is reported as “decreased luciferase activity”. For the same molecule, the “target gene (TGFB2, SMAD2) mRNA” value with HUVECs [1] (mimic 25 nM) is “reduced”. For the same molecule, the “target gene (TGFB2, SMAD2) protein levels” value in the data set on HUVECs [1] (mimic 25 nM, Western blot) was “reduced”. Further, the “expression of ACVR1 and ROCK1” value in the data set on HUVECs [1] (mimic transfection) is listed as “did not affect”. In the data set with HUVECs [2], the “proliferation of HUVECs (BrdU incorporation)” value was “significantly increased”. For the same molecule, in data set [4], the “CD31 and VE-cadherin, mRNA and protein levels” value is “rescued”; the “COL1A1 and FSP-1 staining (immunostaining)” value is “decrease”; the “TGFB2, SMAD2, SLUG, FSP-1, COL1A1 (mRNA and protein)” value is “decreased”; the “endothelial markers CD31 and VE-cadherin on ECs membrane (immunostaining)” value is reported as “maintenance”. In data set [4], the “phosphorylation of SMAD2” value is reported as “reduced”. In the data set with HUVECs [3], the “tube formation / tubulogenesis in Matrigel assay (total tubules length)” value was “significantly elevated”. Besides, the “luciferase activity, 3′-UTR-SMAD2 reporter” value with 3′UTR of SMAD2 is given as “decreased luciferase activity”.
